US20050249739A1

Biological target: S protein of SARS-CoV (Urbani strain) on virus (SARS-CoV (Urbani strain)) (UniProt P59594)
Test: cell-based or functional assay

80R IgG1 (antibody) showed a micro-neutralization assay: fold more effective than 80R scFv on a molar basis of 20 fold.
